Results on 1 molecule are retold here after patent US20230176057A1 (CHAN ZUCKERBERG BIOHUB, published 2023).

For this test, the target named is SARS-CoV-2 nucleocapsid protein (N protein) (SARS-CoV-2, UniProt P0DTC9 1-419).

What is called Kd is the equilibrium constant for the complex coming apart.

B1: N-binding clone H2 Fab (Fab, V domains shown)
VH: EVQLVESGGGLVQPGGSLRLSCAASGFNVYSSSIHWVRQAPGKGLEWVASISSYYSYTSYADSVKGRFTISADTSKNTAYLQMNSLRAEDTAVYYCARSYNFSWSGYYGFDYWGQGTLVTVSS
VL: DIQMTQSPSSLSASVGDRVTITCRASQSVSSAVAWYQQKPGKAPKLLIYSASSLYSGVPSRFSGSRSGTDFTLTISSLQPEDFATYYCQQFIQFPITFGQGTKVEIKR
For B1, binding was put at a Kd of 20 nM.
